# Assay results from paper PMC12105683, “Generation of Conformation‐Specific Monoclonal Antibodies for Integral Membrane Proteins” (Current Protocols, 2025).
# Positions count from the first letter of the chain named.
# B1: 4B2 mAb (antibody, V domains shown)
# VH: EVQLQQSGAELVRSGASVKLSCTGSGFNIKDYYMHWVKQRPEQGLEWIGWIDPENGDTEYAPKFQGKATMTADTSSNTAYLHLSSLSSEDTAVYYCKGDYRYDDGGNYWGQGTSVTVSS
# VL: DIQMTQTTSSLSASLGDRVTISCRASQDISNYLNWFQQKPDGTVKLLIYYTSRLHSGVPSRFSGSGSGTDYSLTINNLEQEDIATYFCQQGDSLPWTFGGGTKLEIK
# notes: IgG2a/kappa; source: mouse hybridoma, bioreactor flask; purified (Protein A/G agarose)
# B2: 15F1 mAb (antibody, V domains shown)
# VH: QAQLKESGPGLVAPSQSLSITCTVSGFSLTNYGVHWVRQPPGKGLEWLGVIWAGGSTNYNSALMSRVSISKDNSKSQVFLKMNSLQTDDTVMYYCAREDYDYDWHFDVWGAGTTVTVSS
# VL: B1 VL with D1E, N34S, F36Y, T69I, I83F, D92N, S93T, W96L, G100A, I106L
# notes: IgG1/kappa; source: mouse hybridoma, bioreactor flask; purified (Protein A/G agarose)
# B3: 11B8 mAb (antibody, V domains shown)
# VH: EVKLLESGGGLVQPGGSLKLSCAASGFDFSEYWMSWVRQAPGKGLEWIGEINPDSSSIDYTPSLKDKIIISRDNAKKTLYLQLSKVRSEDTALYYCARPRGNYVVMDYWGQGTSVTVSS
# VL: NIVLTQSPASLAVSLGQRATISCRASESVDSYGSSFVHWYQQKPGQPPKLLIFLASKLESGVPARFSGSGSRTDFTLTIDPVEADDAATYYCQQTNEDPYTFGGGTKLEIK
# notes: IgG2b/kappa; source: mouse hybridoma, bioreactor flask; purified (Protein A/G agarose)
# B4: 3G9 mAb (antibody, V domains shown)
# VH: KVQLQQSGAGLVKPGASVKLSCKASGYTFTDYIIHWIKQRSGQGLEWIGWFYPGSGSIKYNEKFKDKATLTADYSSSTVYMELSRLTSEDSAVYFCARHEHRGYYGDYPMDYWGQGTSVTVSS
# VL: DIVMSQSPSSLAVSVGEKVTMSCKSSQSLLYSNNQKNYLAWYQQKPGQSPKLLIYWASTRESGVPDRFTGSGSGTDFTLTISSVKAEDLAVYYCQQYYSYPPYTFGGGTKLEIK
# notes: IgG2a/kappa; source: purified (Protein A/G agarose)
# B5: 2D3 mAb (antibody, V domains shown)
# VH: EVQLVESGGGLVKPGGSLKLSCAASGFAFSTYDMSWVRQTPEKRLEWVAYISGGGGTTYYPGTVKGRFTISRDNAKNTLYLQMSSLKSEDTAMYYCARQGYGYSMDYWGQGTSVTVSS
# VL: DVVMTQTPLSLPVSLGDQASISCRSSQSLVHSNGDTYLLWYLQKPGQSPKLLIYKVSNRFSGVPDRFSGSGSGTDFTLKISRVEAEDLGVYFCSQSTHVPRTFGGGTKLEIK
# notes: IgG2b/kappa; source: purified (Protein A/G agarose)
# B6: 9B5 mAb (antibody, V domains shown)
# VH: EVQLQQSGAELVRSGASVKLSCTTSGFNIKDYYMHWVKQRPEQGLEWIGWIDPENGDAEYAPKFQGKATMTADTSSNTAYLQLSSLTSEDTAVYYCNSGVAYWGQGTLVTVSA
# VL: not shown
# notes: as for B1
# B7: 3D2 mAb (antibody, V domains shown)
# VH: QVQLQQSGAELMKPGASVKISCKATGYTFRSYWIEWLKQRPGHGLEWIGEILPGSGRTNYNEKFKGKATITADTSSNTAYMQLSSLTSEDSAVYYCTRSRGTMITREFTYWGQGALVTVSA
# VL: DIVLTQSPASLAVSLGQRATISCRASESVEYYGTTLMQWYQQKPGQPPKLLIYAASNVDSGVPARFSGSGSGTDFSLNIHPVEEDDIAMYFCQQSRKVPSTFGGGTKLEIK
# notes: as for B2
# B8: 5E3 mAb (antibody, V domains shown)
# VH: QVQLQQPGAELVRPGASVKLSCKASGYSFTSYWMNWVKQRPGQGLEWIGMIHPSDSESRLNQKFKDKATLTVDKSSSTAYMQLRSPTSEDSAVYYCARSAYYRSFDYWGQGTTLTVSS
# VL: DVLMTQTPLSLPVSLGDQASISCRSSQNIVHSNGNTYLEWYLQKPGQSPKLLIHKVSNRFSGVPDRFSGSGSGTDFTLKISRVEAEDLGVYYCFQGSHVPYTFGGGTKLEIK
# notes: IgG1/kappa; source: purified (Protein A/G agarose)
# B9: 5F11 mAb (antibody, V domains shown)
# VH: QGQMQQSGAELVKPGASVKLSCKTSGFSFSTSYINWLKQKPGQSLEWIAWIYAGTDGTSYNQKFTDKAQLTVDTSSSTAYMQFSSLTTDDSAIYYCAREGIYYGNYAGFTYWGQGTLVTVSA
# VL: DIVMTQSPSSLAVTAGEKVTMRCKSSQSLLWSVNQNNYLSWYQQKQGQPPKLLIYGASIRESWVPDRFTGSGSGTDFTLTISNVHAEDLAVYYCQHNHGSFLPYTFGGGTKLEIK
# notes: as for B2
# B10: 5B2 mAb (antibody, V domains shown)
# VH: EVQLQESGPSLVKPSQTLSLTCSVTGDSITSGYWNWIRKFPGNKLEYMGHISYRGSTYYNPSLKSRISITRDTSKNQYYLQLNSVTTEDTATYYCASRSYDEGFDSWGQGTTLTVSS
# VL: NIVLTQSPASLAVSLGQRATISCRASESLDSYGNSFMHWYQQKPGQPPKLLIYLASNLESGVPARFSGSGSRTDFTLTIDPVEADDAATYYCQQNKEDLLTFGAGTKLELK
# notes: as for B2
# Key:
# Settings in all cases: both partners purified
# TARP γ‐2 [1] = molecular target: T1, TARP γ‐2 (printed accession Q71RJ2 is rat; table …, UniProt Q71RJ2); test: BLI; Octet RED384; mAb (25 µg/ml) captured on anti-mouse IgG Fc capture (AMC) biosensors, iGluR as analyte; TBS with 0.075% LMNG or 1 mM DDM; association 900 s, dissociation 1800 s; 1:1 model, global fit
# T1 construct: TARP γ-2 (stargazin), AMPAR auxiliary subunit; also called transmembrane AMPAR regulatory protein γ-2; source: HEK293S GnTI- cells/tSA201 cells, baculovirus transduction (pEG BacMam)
# T1 sequence (Q71RJ2 whole entry, one chain of several): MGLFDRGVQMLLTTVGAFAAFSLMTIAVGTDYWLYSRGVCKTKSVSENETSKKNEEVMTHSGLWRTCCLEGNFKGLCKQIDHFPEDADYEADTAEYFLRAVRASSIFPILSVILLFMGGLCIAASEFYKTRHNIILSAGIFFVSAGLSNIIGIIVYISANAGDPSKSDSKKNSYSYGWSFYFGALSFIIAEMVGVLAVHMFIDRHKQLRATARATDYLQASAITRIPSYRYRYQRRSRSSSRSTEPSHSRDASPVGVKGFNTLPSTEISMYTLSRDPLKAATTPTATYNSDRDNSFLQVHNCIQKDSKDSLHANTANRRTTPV
# TARP γ‐8 [2] = molecular target: T2, TARP γ‐8 (Mus musculus, UniProt Q8VHW2); test: SEC; fluorescence-detection SEC (FSEC) shift assay; receptor incubated with mAbs individually and in combination at a 1:2 molar ratio; Superose 6 Increase 10/300 GL, 20 mM Tris, 150 mM NaCl, 0.075% LMNG
# T2 construct: TARP γ-8, AMPAR auxiliary subunit; also called transmembrane AMPAR regulatory protein γ-8; source: HEK293S GnTI- cells/tSA201 cells, baculovirus transduction (pEG BacMam)
# GluA2 AMPAR = molecular target: T3, GluA2 AMPAR (Rattus norvegicus, UniProt P19491); test: BLI; Octet RED384; mAb (25 µg/ml) captured on anti-mouse IgG Fc capture (AMC) biosensors, iGluR as analyte; TBS with 0.075% LMNG or 1 mM DDM; association 900 s, dissociation 1800 s; 1:1 model, global fit
# T3 construct: GluA2 subunit of the AMPA receptor; source: HEK293S GnTI- cells/tSA201 cells, baculovirus transduction (pEG BacMam)
# GluA1 AMPAR = molecular target: T4, GluA1 AMPAR (Rattus norvegicus, UniProt P19490-2); test: as above
# T4 construct: GluA1 subunit of the AMPA receptor; source: HEK293S GnTI- cells/tSA201 cells, baculovirus transduction (pEG BacMam)
# [3] = molecular target: T5, GFP-conjugated GluN1/GluN3A receptor (Rattus norvegicus, UniProt P35439;Q9R1M7); test: SEC; fluorescence-detection SEC (FSEC) shift assay; receptor incubated with mAbs individually and in combination at a 1:2 molar ratio; Superose 6 Increase 10/300 GL, 20 mM Tris, 150 mM NaCl, 0.075% LMNG
# T5 construct: GluN1 subunit of the NMDA receptor; GluN3A subunit of the NMDA receptor; also called GluN1/GluN3A NMDAR; GluN1/N3A NMDAR; source: HEK293S GnTI- cells/tSA201 cells, baculovirus transduction (pEG BacMam); copies: 2 + 2
# TARP γ‐8 [4] = molecular target: T2, TARP γ‐8; test: BLI; Octet RED384; mAb (25 µg/ml) captured on anti-mouse IgG Fc capture (AMC) biosensors, iGluR as analyte; TBS with 0.075% LMNG or 1 mM DDM; association 900 s, dissociation 1800 s; 1:1 model, global fit
# TARP γ‐2 [5] = molecular target: T1, TARP γ‐2; test: SEC; fluorescence-detection SEC (FSEC) shift assay; receptor incubated with mAbs individually and in combination at a 1:2 molar ratio; Superose 6 Increase 10/300 GL, 20 mM Tris, 150 mM NaCl, 0.075% LMNG
# GluN2A = molecular target: T6, GluN2A (Rattus norvegicus, UniProt P35439;G3V9C5); test: BLI; Octet RED384; mAb (25 µg/ml) captured on anti-mouse IgG Fc capture (AMC) biosensors, iGluR as analyte; TBS with 0.075% LMNG or 1 mM DDM; association 900 s, dissociation 1800 s; 1:1 model, global fit
# T6 construct: also called GluN2A subunit; source: HEK293S GnTI- cells/tSA201 cells, baculovirus transduction (pEG BacMam)
# GluN3A = molecular target: T7, GluN3A (Rattus norvegicus, UniProt P35439;Q9R1M7); test: as above
# T7 construct: also called GluN3A subunit; source: HEK293S GnTI- cells/tSA201 cells, baculovirus transduction (pEG BacMam)
# GluN1 = molecular target: T8, GluN1 (Xenopus laevis, UniProt A0A1L8F5J9); test: as above
# T8 construct: also called GluN1 subunit; source: HEK293S GnTI- cells/tSA201 cells, baculovirus transduction (pEG BacMam)
# GluN1/GluN2A NMDAR = molecular target: T9, GluN1/GluN2A NMDAR (Rattus norvegicus, UniProt P35439;G3V9C5); test: SEC; fluorescence-detection SEC (FSEC) shift assay; receptor incubated with mAbs individually and in combination at a 1:2 molar ratio; Superose 6 Increase 10/300 GL, 20 mM Tris, 150 mM NaCl, 0.075% LMNG
# T9 construct: GluN1 subunit of the NMDA receptor; GluN2A subunit of the NMDA receptor; also called GluN1/N2A receptor; GluN1/N2A; source: HEK293S GnTI- cells/tSA201 cells, baculovirus transduction (pEG BacMam); copies: 2 + 2
# GluA3 AMPAR = molecular target: T10, GluA3 AMPAR (Rattus norvegicus, UniProt P19492); test: BLI; Octet RED384; mAb (25 µg/ml) captured on anti-mouse IgG Fc capture (AMC) biosensors, iGluR as analyte; TBS with 0.075% LMNG or 1 mM DDM; association 900 s, dissociation 1800 s; 1:1 model, global fit
# T10 construct: GluA3 subunit of the AMPA receptor; source: HEK293S GnTI- cells/tSA201 cells, baculovirus transduction (pEG BacMam)
binder,measurement,setting,value
B1,Kd,TARP γ‐2 [1],4.5 nM
same,koff,TARP γ‐2 [1],0.000119 s⁻¹
same,kon,TARP γ‐2 [1],50300 M⁻¹ s⁻¹
same,binding result,TARP γ‐8 [2],binds
B2,Kd,GluA2 AMPAR,< 0.001 nM
same,koff,GluA2 AMPAR,< 1e-07 s⁻¹
same,kon,GluA2 AMPAR,1.02e+06 M⁻¹ s⁻¹
B3,koff,GluA1 AMPAR,< 1e-07 s⁻¹
same,kon,GluA1 AMPAR,123000 M⁻¹ s⁻¹
B4,binding result,[3],binds
B5,binding result,[3],binds
B6,Kd,TARP γ‐8 [4],3.1 nM
same,koff,TARP γ‐8 [4],0.00103 s⁻¹
same,kon,TARP γ‐8 [4],45900 M⁻¹ s⁻¹
same,binding result,TARP γ‐2 [5],binds
B7,koff,GluN2A,< 1e-07 s⁻¹
same,kon,GluN2A,1.85e+06 M⁻¹ s⁻¹
B8,Kd,GluN3A,1.4 nM
same,koff,GluN3A,1.99e-05 s⁻¹
same,kon,GluN3A,83700 M⁻¹ s⁻¹
B9,Kd,GluN1,0.43 nM
same,koff,GluN1,6.19e-05 s⁻¹
same,kon,GluN1,142000 M⁻¹ s⁻¹
same,binding result,GluN1/GluN2A NMDAR,binds
B10,Kd,GluA3 AMPAR,< 0.001 nM
same,koff,GluA3 AMPAR,< 1e-07 s⁻¹
same,kon,GluA3 AMPAR,758000 M⁻¹ s⁻¹
